Data from paper PMC4844016 (ACS chemical neuroscience, 2015).

What was measured:
[1] = Quasielastic light scattering spectroscopy; format: physicochemical; conditions: QLS
[2] = Bis-ANS fluorescence, exposure of hydrophobic surfaces; format: physicochemical; conditions: 20 µM peptide incubated at 37°C, shaking
[3] = system: differentiated PC12 cells; assay: MTT assay; format: cell-based; conditions: NGF-differentiated PC12 cells, 10 µM freshly prepared peptide, 24 h, 37°C; normalized to media control; three independent experiments, 6 wells
[4] = Electron microscopy of assembly morphology; format: physicochemical; conditions: EM
[5] = Oligomerization by PICUP and SDS-PAGE; format: physicochemical; conditions: 25–35 μM peptide, cross-linked, SDS-PAGE, silver staining
[6] = Thioflavin T; format: physicochemical; conditions: 20 µM peptide, 40 µM ThT, pH 7.5, 37°C, shaking
[7] = Thermodynamics of fibril formation; format: physicochemical; conditions: ΔG^0 = −RT ln (1/Cr); 20 μM, 37°C, 21 days without shaking; four independent experiments
[8] = Ion mobility-mass spectrometry, oligomer distributions; format: physicochemical; conditions: IM-MS, 10 μM peptide in 10 mM ammonium acetate, pH 7.4
[9] = system: SH-SY5Y neuroblastoma cells; assay: Apoptosis assay, Annexin V-FITC staining; format: cell-based; conditions: SHSY-5Y cells, 1 μM, data not shown

| Compound | RH of small particles, initial distribution ([1]; 0.5 h of incubation) | RH of larger particles also observed, initial distribution ([1]; 0.5 h of incubation, relatively few particles) | RH of oligomers remaining after 24 h ([1]; 24 h of incubation) | maximal RH after 24 h ([1]; 24 h of incubation) | time of peak Bis-ANS fluorescence [2] | decrease in MTT metabolism [3] | globules, size range, Day 0 ([4]; 37°C with shaking, day 0, Image J) | long fibrils, size range, Day 7 ([4]; 37°C with shaking, day 7) | short fibrils, assembly length, Day 7 ([4]; 37°C with shaking, day 7, value in parentheses) | annuli, inside diameter, Day 0 ([4]; day 0) | annuli, outside diameter, Day 0 ([4]; day 0) | oligomer size distribution by PICUP [5] | time ThT fluorescence remained constant (lag) [6] | ΔG^0 of fibril formation [7] | oligomers assigned in ATD of z/n = −5/2 peak [8] | effect of positive control on cells [9] |
| --- | --- | --- | --- | --- | --- | --- | --- | --- | --- | --- | --- | --- | --- | --- | --- | --- |
| Amyloid β−protein (1–42) [Aβ42] | 8–10 nm | 100–1000 nm | 8–10 nm | > 1000 nm | 4 h | ≈ 23% | 11–23 nm | 9–21 nm | 56–303 nm | 4–11 nm | 13–25 nm | prominent node of band intensity at pentamer-hexamer | ≈ 1 h | −8.45 (0.12) kcal/mole | dimer, tetramer, hexamer, and dodecamer | – |
| CN[C@@H]1C[C@H]2O[C@@](C)([C@@H]1OC)n1c3ccccc3c3c4c(c5c6ccccc6n2c5c31)C(=O)NC4 [staurosporine] | – | – | – | – | – | – | – | – | – | – | – | – | – | – | – | complete disruption of membrane integrity |
